Target: the molecule itself
Test: Tricine SDS-PAGE, non-reducing against reducing; purified C5-His deglycosylated with glycopeptidase F, 12% gel

B1: N-terminal His-tagged C5 (C5-His) single domain of immunoglobulin new antigen receptor (IgNAR) (domain or fragment)
chain: PKVYLLHPSTDEIDTENSATLMCLATNFHPAEIYVGWMANDTLLDSGYRTQVDSEKGSGSSFVTDRLRLTAAEWNSDTTYSCLVGHPSLNRDLIRSTNKSNGKPSSVNVSVVLSDTVKSCT
How did the “stoichiometry N” value turn out when B1 was run?
The value was 2.

Source: article PMC7247132 (BMC Proceedings, 2020)
